This data set can be described thus: soluble on expression in E. coli; label from the status in PepcDB or PDB records.
For the sequence “SDLVGVASPEPGTAAAWGPSKCPWAIPQNTISCSLADVMSEQLAKELQLEEEAAVFPEVAVAEGPFITGENIDTSSDLMLAQMLQMEYDREYDAQLRREEKKFNGDSKVSISFENYRKVHPYEDSDSSEDEVDWQDTRDDPYRPAKPVPTPKKGFIGKGKDITTKHDEVVCGRKNTARMENFAPEFQVGDGIGMDLKLSNHVFNALKQHAYSEERRSARLHEKKEHSTAEKAVDPKTRLLMYKMVNSGMLETITGCISTGKESVVFHAYGGSMEDEKEDSKVIPTECAIKVFKTTLNEFKNRDKYIKDDFRFKDRFSKLNPRKIIRMWAEKEMHNLARMQRAGIPCPTVVLLKKHILVMSFIGHDQVPAPKLKEVKLNSEEMKEAYYQTLHLMRQLYHECTLVHADLSEYNMLWHAGKVWLIDVSQSVEPTHPHGLEFLFRDCRNVSQKGGVKEALSERELFNAVSGLNITADNEADFLAEIEALEKMNEDHVQKNGRKAASFLKDDGDPPLLYDE”, the “soluble on expression in E. coli” value is “soluble”.

Consider “MKKSLALLAFATLLPSAWTHADSAYINYRHQYAESTRMHADRVKFGSRLDSGWGFEGELKYKTAGDRQDVAFDNTVGNGHELTTSYQYRLNDKWMLTPSLALESIEKSTAYKMGLKLGYKVNDQLSVSGRYRYDSIKLDRDKVNHDMPDNQMDDQSINRYDVWVNYASKGPWAYEYQFTYFDADYIRYDNGRTDYEQNAAFKYRWDKHWVPFFEVGDIKVDSEDDKRQLRLRVGVQYNFL”, for which the “soluble on expression in E. coli” value is “not soluble”.

On to “MRIESPQNPRVKALAALKERKERERTGRFLVEGRREVERALEAGLSLETLLLGPKARPEDRALAGGAEVLELSERALARVSTRENPAQVLGVFRLPRRSLAGVTLGAAPLVLVLLGLEKPGNLGAILRAADGAGADLVLVAEGVDLFSPQVIRNSTGAVFALPVYPVAEGEAARFLEEHNLPLVAATPEGERLYWEGDYRGGVAFLLGAEDKGLPEAWKRRAQVRVRIPMRGRADSLNVAVTAALLLYEALRQRSGGAPL”, for which the “soluble on expression in E. coli” value is on record as “soluble”.

For the sequence “MGSDKIHHHHHHMNLAYLILAHNNPNHLQKLISSLDTSDVHFFVHIDGKSNILPFQANLISNKVTFVQERRNIFWGEFSIVQATIDLMKTALNKQDFDYLILISGSDYPLKNAQYIKDFFSKNKGSEFINLVELPNEQASKNLNRLYQYRISFSSKNIVLRAFRRVINCIINDLFHWQRNYRKSLGELKPYAGSQWWALSGDACNYILNFIAKNPEILKFFQTALIPDESFFHTILANSDFLTKVKPNLTFTKWNDTAHPEYITVEIVRDFKGMDAIYNHSIGGYGEVLFARKFAPDSDEVIKFINDNIA”, the “soluble on expression in E. coli” value was “not soluble”.

Consider “MICCLGPRGSYSEKAAVTFSKAINDSEIQFEDSIYNVFKAVETNPEFFGVVPSENSIGGSVSITQDLLLEFPVKILGEVDISINHCLLGYDIKKVTEVLAHPQALAQCGHYITKNNWNITPVDSNAKAAKIVSEEKDEKLAAICGVENAEIYGLNVLDEYIQDFKNNTTRFFLICNKNK”, for which the “soluble on expression in E. coli” value was “not soluble”.

For “MGSDKIHHHHHHMSQHVLLNSVDHKDIKIITERSAKYGDNVWFSVTFPAEFRSVQAHYPIFFQKDQTTGQFFAVALYGFQNNENLFLNNGTWQASYIPLTQRRQPFLIGQQSVREDGVERKQRVIHIDIASPRVSTTEGEALFHPYGGNTQYLDDIGDMLEGIHHGLIDSKHFIDLLIEHQLLESFTLDVKLDNGQQHQMMGFYTINEDTLASLSAEVLAQLHIKDYLKAIYMALASQARVRDLLNLKNAQG”, the “soluble on expression in E. coli” value is “not soluble”.

For “MKYMVVSSPIQEVLRLHKYIEISTTTITVKITNKMSSPVIGITFGNTSSSIAYINPKNDVDVIANPDGERAIPSALSYVGEDEYHGGQALQQLIRNPKNTIINFRDFIGLPFDKCDVSKCANGAPAVEVDGKVGFVISRGEGKEEKLTVDEVVSRHLNRLKLAAEDYIGSAVKEAVLTVPTNFSEEQKTALKASAAKIGLQIVQFINEPSAALLAHAEQFPFEKDVNVVVADFGGIRSDAAAIAVRNGIFTILATAHDLSLGGDNLDTELVEYFASEFQKKYQANPRKNARSLAKLKANSSITKKTLSNATSATISIDSLADGFDYHASINRMRYELVANKVFAQFSSFVDSVIAKAELDPLDIDAVLLTGGVSFTPKLTTNLEYTLPESVEILGPQNKNASNNPNELAASGAALQARLISDYDADELAEALQPVIVNTPHLKKPIGLIGAKGEFHPVLLAETSFPVQKKLTLKQAKGDFLIGVYEGDHHIEEKTLEPIPKEENAEEDDESEWSDDEPEVVREKLYTLGTKLMELGIK”, the “soluble on expression in E. coli” value is reported as “not soluble”.

For “MTVESVNPETRAPAAPGAPELREPPVAGGGVPLLGHGWRLARDPLAFMSQLRDHGDVVRIKLGPKTVYAVTNPELTGALALNPDYHIAGPLWESLEGLLGKEGVATANGPLHRRQRRTIQPAFRLDAIPAYGPIMEEEAHALTERWQPGKTVDATSESFRVAVRVAARCLLRGQYMDERAERLCVALATVFRGMYRRMVVPLGPLYRLPLPANRRFNDALADLHLLVDEIIAERRASGQKPDDLLTALLEAKDDNGDPIGEQEIHDQVVAILTPGSETIASTIMWLLQALADHPEHADRIRDEVEAVTGGRPVAFEDVRKLRHTGNVIVEAMRLRPAVWVLTRRAVAESELGGYRIPAGADIIYSPYAIQRDPKSYDDNLEFDPDRWLPERAANVPKYAMKPFSAGKRKCPSDHFSMAQLTLITAALATKYRFEQVAGSNDAVRVGITLRPHDLLVRPVARHHHHHH”, the “soluble on expression in E. coli” value is given as “soluble”.

For the sequence “MGSDKIHHHHHHMNLATSERAQLATLLLEKGPNFPTLCGDWNTQELAAHLLIRESRPWIAAGMFLPGGSRIVADAMRKITQQPFEHVVAQWMKGPKWGYLGRYLDSVANRIEHFVHHEDVRRGETTVGQWQNLDLLPCNAKPRVLSERHSGELYDAMRWVAPLLLRRSACPVVIEPIGFPRLVVADAGVVSTRGDCVVHVRGDIGEVVLWILGRNQVDLFVDGPTHLLKKSSL”, the “soluble on expression in E. coli” value is given as “not soluble”.

Take “STAGKVIKCKAAVLWEEKKPFSIEEVEVAPPKAHEVRIKMVATGICRSDDHVVSGTLVTPLPVIAGHEAAGIVESIGEGVTTVRPGDKVIPLWTPQCGKCRVCKHPEGNFCLKNDLSMPRGTMQDGTSRFTCRGKPIHHFLGTSTFSQYTVVDEISVAKIDAASPLEKVCLIGCGFSTGYGSAVKVAKVTQGSTCAVFGLGGAGLSVIMGCKAAGAARIIGVDINKDKFAKAKEVGATECVNPQDYKKPIQEVLTEMSNGGVDFSFEVIGRLDTMVTALSCCQEAYGVSVIVGVPPDSQNLSMNPMLLLSGRTWKGAIFGGFKSKDSVPKLVADFMAKKFALDPLITHVLPFEKINEGFDLLRSGESIRTILTF”: the “soluble on expression in E. coli” value is listed as “soluble”.

Take “PVNTKRSNGTKRVEFPTTKKSMCIGNSTPNEQETFRAKVDEIWFRLTQKTDGTVMRDFLIEKAAEYFKQPEQPKQNAIEVISAIMAPQEEQTKSKADLYKFLAMFGPYETIMLKIASLLLISNNKGHWLTFDPQAEKNANNQRDSISGWFDQNEPNCLILKTPTGIRKIWNKPLIEATGQYLMDENGEKYDSWDKYFEMKPIETYLTAYPTFAPMHHHHHH”: the “soluble on expression in E. coli” value was “soluble”.

As for “MGSDKIHHHHHHMKVLNLLSAGGIGGIEQLCSNIAKYANYDNTFCFMFEDGQIYKEMKKSGADVISFAECSSKKISKKRWESLCELAEKADIIVTHHCTIALHIYYCALKKRFKNKKFVMTIHSCFDPELNYNYGSWIKNKIAKWNIEEALKISDKIIFVSEAGRRSYLDNFNIDVTKTKVIYNGVEVSAISIDSIKLENNYTRITYIGRVEKIKGLDLFVCALKKLLNDDSNIKVWIIGDGSFRNELEMLVQKLDLTGVIEFTGAKRNIGDYLRKTDLFIYPSTCQEVFGISIVEAMSYGVPCVANNVGGIPEIIENDYNGFITSKTNDDELYKCMYKFIKLDPKLITQMRNNCLLTAEKFSINCTIDNLEKTLKGMM”, the “soluble on expression in E. coli” value is recorded as “not soluble”.

Turning to “MMPLNRQSTTPLYIQLYQQMRDDYDATQANHQLWSIRKMAQNLGVSKTTVEQAYDQLLAEGYVYTVPGSGYFYRDRTHWPAAKQALETVPQPTKPRAFTYDFRYGVTQLLSPSWNAWKRAVRLALRQTEQQPTAVYPDAQGLPALRENLVRFLKTTRGVRCTADQIVITSGAKAGLSILLSILPRGTVGIENPGYRGLSELAASYGQTAVPIRVTEDGLDLTQVRARNPQIIYTTPGHQFPLGVVLPIEKRLALLQWAGTQHLIIEDDYDSEYRYSAHPLPALQSLATANQVAYLGTFSRGIDPTLRMGYLVLPPQLVATYHQRYQYRAEMVAGLLQQAMANYFEDGAYYRHLSRNRAANRQKYRVLCHQLAQTKQIRPIATGAGVHLVVQIPGIAQAKLLEALEQQQVRIYPLSSNWRDMPTTDYYLLGFAGLTLSELTTGVKRLVQVCEQLVR”, the “soluble on expression in E. coli” value is given as “not soluble”.

In the case of “MQKPDESNEKHDIPCTSASLLDHLIQKEASAAEDTDPLDHIGNIGEAIIGQFSSGADVGTEILQNALKMFDQAMAYTNPQAPPKRKYKRKEAPIEDAQPTTTSSATLASLLTLNPVPIESSAKRFHQNDLRAGFSPRTKFDVDCSDFFLLQGSDADTQFNNLHKKLEKERTQMFDDQVSKDVERLLNTANRVHGPREWTAEEKAEFTSYCRSWRSGALGADDKLNLQKFYSKAYGKVFQGLSENKASSEESAIDFSNFMGVGSEDPANQTEDVPGGSCKASPDNFSFSTLNPRMKYEKEKEFRSAINNIFTEVFKEFHSKKQFIPKPTRLDVPPCEIEREHLSMLMSKFSIAMDDPEKEWNVDELQELRRFYTLFREKNHLPFVQTKEFGKFLRKAFGRLEHYELQRENDTSLQEKRKFWQEYRKTHVPPKRERKACAARTTPVRPYIKSNIDTKGETEEERRLRRAAYLRKWRLAQKEKHSADVMSQFKHQEDVAL”, the “soluble on expression in E. coli” value is “not soluble”.

As for “MSLNKQDKKWRVLVVDDDADVLTNTVYTLMDLKVLGRELDITTLGSATAAIELLERERDFAVILLDVVMEKPHAGLSLVTMIRHDFNMQMSRIILRTGNPGYAPERDITLKLEIDDYILKQTAVRDRIITAVIVAIRAYDQLQRLARLKDAMQQIICCSNQLLTTDEIDQFANVCMQYVAPIFGKNAGGGLAYAGMTVNQGIVPLTVMSATSEHESLIEPLNGIGVLPPNISVTKKKMTKALEQTNSIKTDKDWYIYIKVSLGRKVVLWLNKPDGFDEIDETLGKSFANTIKACLDREGHHHHHH”, the “soluble on expression in E. coli” value is “soluble”.

As for “MPIASYAQELKLALHQYPNFPSEGILFEDFLPIFRNPGLFQKLIDAFKLHLEEAFPEVKIDYIVGLESRGFLFGPTLALALGVGFVPVRKAGKLPGECFKATYEKEYGSDLFEIQKNAIPAGSNVIIVDDIIATGGSAAAAGELVEQLEANLLEYNFVMELDFLKGRSKLNAPVFTLLNAQKEALKK”, the “soluble on expression in E. coli” value is “soluble”.

Consider “MGRTQPCGGSCISSTYTLKKNRPCGWSAPPGSRILNQQPQGWPHNQTGCNVHKKIVVPSATDMATRFTQDSFVFDCLSMYYVIDDPWAENCLAAGVNATNVTFGTEQPWDIVLRDFDSGLEKIERSPYLALATNRQEIDAANKQGKLAVIIGTQGSAMVDLEFHRLRTMHRLGMRYFGLAYTGPTMFADGCGESRNAGLSFAGIELIDACNDLGLILDLSHVGHRSREETVARSRFPVCTHSNSYALNPNDRNTTDETARAIRAKGGIMGICGLPKTVHPENATLNELLDHADHWVKTIDAAHVGFGLDFVEAYKSDRSTMPAASRLWRTRRPDIFGTVEEFHLQDYPLGIASIKQLPNLTQGLFDRGYAEKEVAGIIGGNWLRHFTEVYG”, for which the “soluble on expression in E. coli” value was “not soluble”.

Turning to “MGSDKIHHHHHHKAVPLASINGEWNIIEVNGSKVTPGESRTLPFITFDTATGRVSGNSGCNRMMGSFDVNAKPGSMELKGMASTRMMCPDMTTERNVLGALAQVKGYKKAGKDKMFLCNESNRPVVVLEKKEADVKLSVLNGEWKIKEVNGEAITSGMEKQPFIAFDVKKKTLHGNAGCNLINGGFETSTTNAKSISFPGVASTMMACPDMEVEGKILKAMNEVKSFDKLSGGGIGLYDANNALVIVLEK”, the “soluble on expression in E. coli” value is reported as “not soluble”.

These data come from the DeepSol protein solubility set.
